Measurements reported in patent publication US12545899B2, “Luciferase enzymes for use with thermostable luciferins in bioluminescent assays” (Promega Corporation, priority 2018, dated 2026).

Assays:
[1] = Activity of ATG-2889 variants (positions 344/396) with D/L-luciferin; assay type: biochemical; conditions: substrate D/L-luciferin
Excerpt: (§1) Additionally, several other amino acid substitutions, including those not considered to be conservative or semi-conservative, were made to ATG-2889, as shown below in Table 2.

[2] = Activity of ATG-2889 variants (positions 344/396) with CS0333; assay type: biochemical; conditions: substrate CS0333
Excerpt: as §1

[3] = Vmax and Km of Ppe variant and ATG-3707 with D/L-luciferin; assay type: biochemical
[4] = Differential scanning fluorimetry (DSF) analysis; assay type: physicochemical; conditions: Table 9A
Method in brief: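 Thermal melt with 5× final Sypro Orange: ramp 1° C/min from 30 to 95° C, reading each 60 s, derivative of fluorescence plotted by temperature. Luciferase variants were in 20 mM HEPES pH 7.5, 200 mM NaCl, 1 mM EDTA; other enzymes in 50 mM HEPES pH 7.5, 100 mM NaCl, 2 mM EDTA.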

[5] = Kinetic analysis of Ppe variant, ATG-3707, ATG-4117 with D/L-luciferin; assay type: biochemical
Method: (§2) Kinetic tests of these luciferase enzyme variants were also conducted. […] Reagent compositions included 0.005 mg/ml luciferase enzyme variant+1 mM ATP, and 0.1 fM to 1 mM substrate in Bright-Glo™ (BG) or Detection Reagent (DR) buffers. The composition was incubated for 3 mins and read on GloMax® Multi+platform.
(§3) Table 8 below includes representative results of kinetic analysis of the thermostable luciferase variants of Ppe (SEQ ID NO: 1), ATG-3707, and ATG-4117. The Ppe variant (SEQ ID NO: 1) was tested with D/L-luciferin, and ATG-3707, and ATG-4117 were tested with CS0280 and CS0333.

[6] = Kinetic analysis of thermostable variants with D/L-luciferin (Table 10); assay type: biochemical
Method: Experiments were also conducted to evaluate the activities (i.e. Vmax and Km) of the various thermostable luciferase variants of Ppe (SEQ ID NO: 1) described above.
(§4) Tables 10 and 11 include representative results of kinetic analysis of the thermostable variants with D/L luciferin, CS0333, and CS0280. […] MK0135 and MK0137 have amino acid substitutions that improve thermostability relative to MK0133 and MK0134, respectively, while retaining activity on the luciferin analogs CS0333 and CS0280.

[7] = Luminescence at 1 mM D/L-luciferin (Table 11); assay type: biochemical; conditions: 1 mM substrate, 1 mM ATP
Excerpt: as §4

[8] = Luminescence at 1 mM CS0333 (Table 11); assay type: biochemical; conditions: 1 mM substrate, 1 mM ATP
Excerpt: as §4

[9] = Luminescence at 1 mM CS0280 (Table 11); assay type: biochemical; conditions: 1 mM substrate, 1 mM ATP
Excerpt: as §4

[10] = Kinetic analysis of thermostable variants with D/L-luciferin (Tables 13, 14); assay type: biochemical; conditions: 2 mM ATP
[11] = E. coli lysate activity of position 244/339 variants with CS0333 (FIG. 7); assay type: biochemical; conditions: E. coli lysates; Detection Reagent; 0.5 mM substrate; 1 mM ATP; 3 mins
Method: FIG. 7 includes a representative graph assessing the activities of luciferase enzyme variants with amino acid substitutions at positions 244 and 339 of SEQ ID NO: 1 in the presence of 5,5-disubstituted luciferin analog substrate. Assays were prepared by combining overnight E. coli culture expressing enzymes with Detection Reagent+ATP+substrate (luciferin analog compounds CS0280, CS0333, CS0510, and CS0326), and luminescence was read at 3 mins. Reagent compositions included 50 μl lysate of the thermostable luciferase variant of Ppe variant of SEQ ID NO: 1, 0.5 mM substrate, and 1 mM ATP.

[12] = Vmax and Km of ATG-3707 with CS0333; assay type: biochemical
[13] = Luminescence of ATG-3707 variants (second round epPCR) with CS0333; assay type: biochemical
Method: Reagent compositions included CS0333 diluted from 20 mM to 2 mM in reaction buffer with 2 mM ATP. […] Reactions were incubated at 25° C. for 3 min, and luminescence was read and then normalized to ATG-3707 activity tested in parallel.

[14] = Kinetic analysis of ATG-3707 variants with CS0333; assay type: biochemical
Method: Additionally, Table 5 (below) includes kinetic analysis of the ATG-3707 variants identified above. Reagent compositions included CS0333 serially diluted 10-fold from 1 mM to 10 fM in reaction buffer with 2 mM ATP. […] Reactions were incubated at 25° C. for 3 min, and luminescence was read and then normalized to ATG-3707 activity tested in parallel. […] Since C2157D2 was selected for improved brightness in CellTiterGlo® buffer over ATG-3707, it still had beneficial properties.

[15] = Kinetic analysis of ATG-3707, ATG-4117 with CS0280; assay type: biochemical
Method: as §2, §3

[16] = Kinetic analysis of ATG-3707, ATG-4117 with CS0333; assay type: biochemical
Method: as §2, §3

[17] = Activity and kinetics of ATG-3707 with CS0333 (FIGS. 19B-19D); assay type: biochemical
Method: Reagent compositions included 0.005 mg/ml enzyme in 1×TBS+0.5% Prionex, 1 mM substrate in buffer, and 1 mM ATP.

B1: Ppe variant: thermostable luciferase variant of Photuris pennsylvanica (Ppe) of SEQ ID NO: 1 (protein)
chain: MADKNILYGPEPFYPLEDGTAGEQMFDALSRYAAIPGCIALTNAHTKENVLYEEFLKLSCRLAESFKKYGLKQNDTIAVCSENSLQFFLPVIASLYLGIIVAPVNDKYIERELIHSLGIVKPRIVFCSKNTFQKVLNVKSKLKSIETIIILDLNEDLGGYQCLNNFISQNSDSNLDVKKFKPYSFNRDDQVASIMFSSGTTGLPKGVMLTHKNIVARFSIAKDPTFGNAINPTSAILTVIPFHHGFGMMTTLGYFTCGFRVVLMHTFEEKLFLQSLQDYKVESTLLVPTLMAFLAKSALCEKYDLSHLKEIASGGAPLSKEIGEMVKKRFKLNFVRQGYGLTETTSAVLITPKGDAKPGSTGKIVPLHAVKVVDPTTGKILGPNEPGELYFKGPMIMKGYYNNEEATKAIIDNDGWLRSGDIAYYDNDGHFYIVDRLKSLIKYKGYQVAPAEIEGILLQHPYIVDAGVTGIPDEAAGELPAAGVVVQTGKYLNEQIVQDYVASQVSTAKWLRGGVKFLDEIPKGSTGKIDRKVLRQMLEKHTNGHHHHHHHH
activity with D/L-luciferin [1]: 7118320
activity with CS0333 [2]: 178
Km ([3]; BrightGlo Buffer): 0.315 µM
Vmax (RLU) ([3]; BrightGlo Buffer): 23,319,814 RLU
Km ([3]; CellTiterGlo buffer): 1060 µM
Vmax (RLU) ([3]; CellTiterGlo buffer): 5,771,822 RLU
Km ([3]; Detection Reagent Buffer): 10.8 µM
Vmax (RLU) ([3]; Detection Reagent Buffer): 10,017,520 RLU
DSF Tm (° C.) [4]: 79 °C
Km ([5]; BrightGlo): 466 nM
Vmax (RLU) ([5]; BrightGlo): 23,226,184 RLU
Km ([5]; Detection Reagent): 11000 nM
Vmax (RLU) ([5]; Detection Reagent): 12,592,733 RLU
Km ([6]; BrightGlo Buffer): 0.667 µM
Vmax (RLU) ([6]; BrightGlo Buffer): 18,332,536 RLU
Km ([6]; Detection Reagent Buffer): 9.38 µM
Vmax (RLU) ([6]; Detection Reagent Buffer): 9,350,431 RLU
Vmax (RLU) D/L-luciferin BrightGlo Buffer ([7]; BrightGlo Buffer): 30,177,800 RLU
Vmax (RLU) D/L-luciferin Detection Reagent Buffer ([7]; Detection Reagent Buffer): 17,201,600 RLU
Vmax (RLU) CS0333 BrightGlo Buffer ([8]; BrightGlo Buffer): 862 RLU
Vmax (RLU) CS0333 Detection Reagent Buffer ([8]; Detection Reagent Buffer): 724 RLU
Vmax (RLU) CS0280 BrightGlo Buffer ([9]; BrightGlo Buffer): 3,689 RLU
Vmax (RLU) CS0280 Detection Reagent Buffer ([9]; Detection Reagent Buffer): 394 RLU
Km ([10]; BrightGlo Buffer): 1.03 µM
Vmax (RLU) ([10]; BrightGlo Buffer): 14,958,892 RLU
Km ([10]; Detection Reagent Buffer): 28.3 µM
Vmax (RLU) ([10]; Detection Reagent Buffer): 5,686,042 RLU
activity above background with CS0333 [11]: below background (inhibited)

B2: ATG3707: SEQ ID NO: 2; H244W+T344A+I396K+S193A+N228D+L305F+S306P+I109V (protein)
chain: MADKNILYGPEPFYPLEDGTAGEQMFDALSRYAAIPGCIALTNAHTKENVLYEEFLKLSCRLAESFKKYGLKQNDTIAVCSENSLQFFLPVIASLYLGIIVAPVNDKYVERELIHSLGIVKPRIVFCSKNTFQKVLNVKSKLKSIETIIILDLNEDLGGYQCLNNFISQNSDSNLDVKKFKPYSFNRDDQVAAIMFSSGTTGLPKGVMLTHKNIVARFSIAKDPTFGDAINPTSAILTVIPFHWGFGMMTTLGYFTCGFRVVLMHTFEEKLFLQSLQDYKVESTLLVPTLMAFLAKSALVEKYDFPHLKEIASGGAPLSKEIGEMVKKRFKLNFVRQGYGLTEATSAVLITPKGDAKPGSTGKIVPLHAVKVVDPTTGKILGPNEPGELYFKGPMKMKGYYNNEEATKAIIDNDGWLRSGDIAYYDNDGHFYIVDRLKSLIKYKGYQVAPAEIEGILLQHPYIVDAGVTGIPDEAAGELPAAGVVVQTGKYLNEQIVQDYVASQVSTAKWLRGGVKFLDEIPKGSTGKIDRKVLRQMLEKHTNGHHHHHHHH
Km ([3]; BrightGlo Buffer): 0.03 µM
Vmax (RLU) ([3]; BrightGlo Buffer): 2,033,235 RLU
Km ([3]; CellTiterGlo buffer): 91.7 µM
Vmax (RLU) ([3]; CellTiterGlo buffer): 4,840,502 RLU
Km ([3]; Detection Reagent Buffer): 19.4 µM
Vmax (RLU) ([3]; Detection Reagent Buffer): 4,499,483 RLU
Km ([12]; BrightGlo Buffer): 539 nM
Vmax (RLU) ([12]; BrightGlo Buffer): 3,724,104 RLU
Km ([12]; Detection Reagent Buffer): 4820 nM
Vmax (RLU) ([12]; Detection Reagent Buffer): 5,458,906 RLU
Luminescence (RLU) BrightGlo ([13]; BrightGlo buffer, 25° C., 3 min): 3887670 RLU
Normalized Luminescence BrightGlo ([13]; BrightGlo buffer, normalized to ATG-3707): 1.00
Luminescence (RLU) CellTiterGlo ([13]; CellTiterGlo buffer, 25° C., 3 min): 644571 RLU
Normalized Luminescence CellTiterGlo ([13]; CellTiterGlo buffer, normalized to ATG-3707): 1.00
Luminescence (RLU) Detection Reagent ([13]; Detection Reagent buffer, 25° C., 3 min): 5157310 RLU
Normalized Luminescence Detection Reagent ([13]; Detection Reagent buffer, normalized to ATG-3707): 1.00
Km ([14]; BrightGlo): 6.25 µM
Vmax (RLU) ([14]; BrightGlo): 4,240,329 RLU
Km ([14]; Detection Reagent): 113 µM
Vmax (RLU) ([14]; Detection Reagent): 3,695,670 RLU
Km ([5]; BrightGlo): 27.2 nM
Vmax (RLU) ([5]; BrightGlo): 2,596,835 RLU
Km ([5]; Detection Reagent): 1180 nM
Vmax (RLU) ([5]; Detection Reagent): 6,820,106 RLU
Km ([15]; BrightGlo): 4.53 µM
Vmax (RLU) ([15]; BrightGlo): 5,791,823 RLU
Km ([15]; Detection Reagent): 93.5 µM
Vmax (RLU) ([15]; Detection Reagent): 4,706,312 RLU
Km ([16]; BrightGlo): 3.61 µM
Vmax (RLU) ([16]; BrightGlo): 828,567 RLU
Km ([16]; Detection Reagent): 148 µM
Vmax (RLU) ([16]; Detection Reagent): 42,242 RLU
activity with CS0333 comparable to that of Ppe variant with luciferin ([17]; Bright-Glo and Detection Reagent buffers): ≤ 10 ×
loss of performance with D/L-luciferin as compared to CS0333 ([17]; dimmer): about 1 log
